Literature values in patent US8901073B2, “Compounds and their effects on feeding behaviour” (Imperial Innovations Limited, priority 2011, dated 2014).

Conditions: endogenous PYY in circulation; cited from earlier work

## endogenous PYY: peptide YY polypeptide, a hormone secreted into the blood by cells lining the lower small intestine and the colon
  half life: several minutes
